# Measurements as given in the Human Domainome abundance scans (Beltran et al. 2025).
# ± gives the uncertainty stated by the source.
# B1: Serine/threonine-protein kinase A-Raf, residues 21 to 89; numbered along this chain, P10398 (parent)
# chain: VKVYLPNKQRTVVTVRDGMSVYDSLDKALKVRGLNQDCCVVYRLIKGRKTVTAWDTAIAPLDGEELIVE
# Variants of: B1
# Assay: abundance fitness (aPCA) (normalised: wild type 0, dead -1); higher = more abundant; growth selection in yeast, the domain comes from the species named
# Details: Homo sapiens
row,Variant,abundance fitness
1,S24R,-0.914 ± 0.091
2,S24N,-0.469 ± 0.23
3,S24M,-0.04 ± 0.075
4,S24P,-0.896 ± 0.21
5,S24E,-0.652 ± 0.11
6,V13Q,-0.468 ± 0.11
7,V13M,-0.892 ± 0.19
8,V13D,-0.714 ± 0.23
9,V13E,-0.857 ± 0.3
10,V13S,-1 ± 0.17
11,V13P,-0.772 ± 0.15
12,V13G,-1.06 ± 0.16
13,V13I,0.039 ± 0.064
14,V13K,-0.955 ± 0.37
15,V13W,-0.856 ± 0.095
16,V13T,-0.864 ± 0.25
17,V13F,-0.795 ± 0.2
18,V13R,-0.78 ± 0.078
19,V13C,-0.206 ± 0.074
20,V13L,-0.202 ± 0.048
21,D26M,-0.119 ± 0.063
22,D26T,-0.277 ± 0.12
23,D26W,-0.113 ± 0.061
24,D26P,-0.977 ± 0.22

row,Variant,abundance fitness
1,D26E,0.04 ± 0.093
2,D26H,-0.096 ± 0.23
3,D26S,-0.113 ± 0.069
4,D26C,0.063 ± 0.099
5,D26I,-0.146 ± 0.09
6,D26R,0.023 ± 0.051
7,D26V,-0.065 ± 0.051
8,D26G,-0.1 ± 0.047
9,D26K,-0.076 ± 0.083
10,D26L,-0.137 ± 0.053
11,D26Y,-0.182 ± 0.14
12,D26A,0.069 ± 0.071
13,D26Q,0.179 ± 0.098
14,K8V,-0.723 ± 0.071
15,K8W,-0.355 ± 0.054
16,K8Y,-0.231 ± 0.18
17,K27R,-0.046 ± 0.2
18,K27Q,-0.39 ± 0.37
19,L29A,-0.933 ± 0.18
20,L29G,-0.941 ± 0.11
21,L29E,-0.947 ± 0.13
22,L29M,0.191 ± 0.058
23,L29I,-0.907 ± 0.34
24,L29C,-0.995 ± 0.3

row,Variant,abundance fitness
1,L29F,-0.191 ± 0.13
2,T11F,-0.08 ± 0.073
3,T11M,-0.002 ± 0.059
4,T11P,-0.979 ± 0.19
5,T11S,-0.582 ± 0.066
6,T11G,-0.919 ± 0.12
7,T11Y,-0.351 ± 0.1
8,T11E,-0.108 ± 0.072
9,T11Q,-0.1 ± 0.057
10,T11C,-0.064 ± 0.12
11,T11K,-0.371 ± 0.079
12,T11L,0.052 ± 0.047
13,T11R,-0.652 ± 0.063
14,T11I,-0.072 ± 0.1
15,T11W,-0.652 ± 0.09
16,T11D,-0.233 ± 0.13
17,T11V,0.038 ± 0.049
18,D17T,-0.178 ± 0.055
19,D17Q,0 ± 0.06
20,D17L,-0.319 ± 0.047
21,D17G,-0.096 ± 0.057
22,D17M,-0.144 ± 0.075
23,D17I,-0.221 ± 0.088
24,D17H,-0.279 ± 0.15

row,Variant,abundance fitness
1,D17V,-0.186 ± 0.065
2,D17C,-0.418 ± 0.1
3,D17Y,-0.319 ± 0.075
4,D17W,-0.304 ± 0.052
5,D17A,0.039 ± 0.058
6,D17S,-0.04 ± 0.058
7,D17F,-0.114 ± 0.15
8,D17P,0.075 ± 0.057
9,D17E,-0.032 ± 0.067
10,D17K,0.017 ± 0.065
11,Q9D,0.028 ± 0.094
12,Q9N,-0.332 ± 0.17
13,Q9R,-0.211 ± 0.043
14,Q9K,-0.042 ± 0.095
15,Q9H,-0.559 ± 0.28
16,Q9G,-0.297 ± 0.053
17,Q9P,-0.876 ± 0.15
18,Q9M,-0.149 ± 0.082
19,Q9S,-0.11 ± 0.059
20,Q9L,-0.455 ± 0.063
21,Q9W,-0.448 ± 0.064
22,Q9Y,-0.458 ± 0.3
23,Q9V,-0.035 ± 0.046
24,Q9A,-0.198 ± 0.047

row,Variant,abundance fitness
1,Q9C,-0.479 ± 0.12
2,Q9E,-0.008 ± 0.064
3,Q9I,-0.162 ± 0.094
4,Q9T,-0.209 ± 0.069
5,V21E,-0.65 ± 0.16
6,V21G,-1.04 ± 0.18
7,V21M,-0.207 ± 0.09
8,V21I,-0.602 ± 0.43
9,V21H,-0.996 ± 0.3
10,V21Y,-0.033 ± 0.31
11,V21Q,-0.834 ± 0.25
12,V21P,-0.99 ± 0.23
13,V21K,-0.493 ± 0.25
14,V21A,-0.273 ± 0.08
15,V21W,-0.602 ± 0.092
16,V21L,0.093 ± 0.049
17,V21T,-0.964 ± 0.24
18,V21F,-0.392 ± 0.12
19,V21R,-0.864 ± 0.15
20,V21C,-0.707 ± 0.22
21,V21S,-0.858 ± 0.2
22,M19G,-0.216 ± 0.064
23,M19K,-0.223 ± 0.1
24,M19R,-0.218 ± 0.032

row,Variant,abundance fitness
1,M19L,-0.154 ± 0.049
2,M19F,-0.274 ± 0.1
3,M19D,-0.09 ± 0.14
4,M19I,-0.413 ± 0.11
5,M19H,-0.491 ± 0.4
6,M19Q,0.011 ± 0.08
7,M19Y,-0.352 ± 0.18
8,M19C,-0.091 ± 0.11
9,M19A,-0.17 ± 0.062
10,M19V,-0.057 ± 0.057
11,M19P,-0.778 ± 0.1
12,M19E,-0.013 ± 0.078
13,M19T,-0.034 ± 0.071
14,M19W,-0.053 ± 0.05
15,R16K,-0.045 ± 0.052
16,R16H,0.191 ± 0.081
17,R16D,-0.106 ± 0.097
18,R16Y,0 ± 0.087
19,R16V,-0.133 ± 0.044
20,R16E,-0.037 ± 0.062
21,R16C,-0.028 ± 0.1
22,R16L,-0.072 ± 0.042
23,R16G,-0.108 ± 0.037
24,R16A,-0.027 ± 0.045

row,Variant,abundance fitness
1,R16I,-0.073 ± 0.1
2,R16S,-0.048 ± 0.042
3,R16T,-0.086 ± 0.063
4,R16P,-0.117 ± 0.063
5,R16N,-0.147 ± 0.097
6,R16F,-0.169 ± 0.079
7,R16M,-0.181 ± 0.082
8,A28R,-1.06 ± 0.14
9,A28V,0.1 ± 0.042
10,A28F,-0.122 ± 0.27
11,A28I,-0.271 ± 0.29
12,A28Q,-0.438 ± 0.096
13,A28C,-0.223 ± 0.11
14,A28T,-0.206 ± 0.098
15,A28S,-0.263 ± 0.067
16,A28W,-0.425 ± 0.048
17,A28P,-0.15 ± 0.083
18,A28E,-0.195 ± 0.13
19,A28D,-0.371 ± 0.14
20,A28L,0.029 ± 0.044
21,A28Y,-0.274 ± 0.14
22,A28G,-0.78 ± 0.09
23,A28M,-0.037 ± 0.087
